For this series the following is noted: Homo sapiens; pH 2.7; Thermal; DSC; glycine 0.05 M; reversible: yes; whole UniProt chain shown.

B1: Lysozyme C wild type, P61626 (protein)
chain: MKALIVLGLVLLSVTVQGKVFERCELARTLKRLGMDGYRGISLANWMCLAKWESGYNTRATNYNAGDRSTDYGIFQINSRYWCNDGKTPGAVNACHLSCSALLQDNIADAVACAKRVVRDPQGIRAWVAWRNRCQNRDVRQYVQGCGV
For B1, the Tm came to 64.9 °C, the “heat capacity change of unfolding” value is 1.58 kcal/mol/K, the “unfolding enthalpy (calorimetric)” value was 114 kcal/mol and the “unfolding enthalpy (van 't Hoff)” value stood at 120 kcal/mol.

(Values after FireProtDB (doi:10.1021/bi9621829).)
